The source of these data is article PMC6921269.

Data set [1] deals with CCCCCCCCCCCCCCCCCC(=O)CC(=O)SCCNC(C)=O. The data set can be described thus: purified protein. Conditions: co-substrate C5 diketide-NAC, 37 °C, 20 min.
The subject of data set [2] is CCCCCCCCCCCCCCCC(=O)CC(=O)SCCNC(C)=O. The data set can be described thus: purified protein. Conditions: co-substrate C5 diketide-NAC, 37 °C, 20 min.

Turning to CsyB (Aspergillus oryzae RIB40; I375F), in data set [1], the Km came out at 6.5 ± 2.1 mM, the kcat worked out at 0.882 ± 0.14 s⁻¹ and the kcat/Km was 136 M⁻¹ s⁻¹. In data set [2], the Km came out at 5.4 ± 1.8 mM, the kcat stood at 0.713 ± 0.075 s⁻¹ and the kcat/Km came out at 132 M⁻¹ s⁻¹.
